Patent US20200384066A1

Biological target: angiogenin (UniProt P03950)
Assay: phage ELISA; angiogenin coated at 4 ug/mL, negative control phage, anti-g8p antibody and HRP secondary

angiogenin, sequence (P03950 25-147 limits assumed): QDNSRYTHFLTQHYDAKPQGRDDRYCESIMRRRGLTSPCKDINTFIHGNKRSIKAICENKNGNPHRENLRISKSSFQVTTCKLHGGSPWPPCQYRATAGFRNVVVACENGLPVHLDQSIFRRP

Substance wild type phage has an OD value (450 nm) of 0.191 OD.
